Assay results reported in the domain aggregation screens of Martell et al. (2025).

Assay: soluble fraction after stress (log2 fold change); higher = more stays soluble; pooled small domains, quantitative proteomics
Conditions: stress: 50 degC
Outline: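 After stress at 50°C, the amount of each protein still soluble was measured. This was done on pooled custom libraries of small protein domains, using high-throughput quantitative proteomics. The figure given is a base-two log fold change and stands for aggregation propensity, with higher values meaning more protein stays in solution.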

| Sequence | soluble fraction (log2) |
| --- | --- |
| HMKQQTRAELLDEFAKAHAERGLYFNRDYEQGEIQALQPDKAREYLQSALEARTERQQASEQDR | 0.274 |
| HMKKLTAEEIQEAKDILEKIQEIPNFKKIFGDDTIKALENSTKTGVLLPDNIISKIHTLMIRFGIK | 0.237 |
| HMENTFNENLRRIRKEKKITQEQLAEFVGVSPQAVSKWEMNSFPDASLLPKIAEKLEVSIDELFGLK | 0.000882 |
| HMSTMVEIPNVVGMTIKEAKEALGNLGLSISKISGSNEDSAIVTEVSPAPGSSVKRDESITLVGQPK | 0.0366 |
| HMFDVNSMIAANIVAILKKQNRKQIDLAGALQTNKQTISKMLNGSRMINAIELKRIAEFLGVKMEELTKL | -0.635 |
| HMKVSVDLSMFEDDQTADRNAAVAWVVDELGAGGVDRTILMQLQSTGWSAEQSRAILDLASAGR | -0.208 |
| HMDYENGTVKWFNTKKGYGFITRENGEDLFVHFRNIKGRGRRSLNDGEPVTFVVIEGDKGLQADQVSA | -0.025 |
| HMQEQIVQGIVKYFDAEKQFGFIAGDDGVDRFFNAKSIQGNAVKTGDRVRFLAISHIRGPRALKISA | -0.852 |
| HMVNLKQVELREHHPWVGHKIKELDISRHTLIVMIRRGDNAIVPNGDTLIKSGDIVFVFSKR | -1.05 |
| HMQYKVMDVTVDGNPVIEFQNLNSKIKWIENNPDAIIQNIKTSSFEADQKRIVGTSRGPFWIVIKPDF | -0.144 |
| HMGLDPVFKKWVDDNPWYTENRVLRALTHDYAEELKQTNPQLVGVEFLDQVKKRVQADHPEFFQ | 0.141 |
| HMSYQNKLNYLINAFGGADNFQKLLGVGPSAISNYKSRKHLPLNQAKRLSKIAPQFGFSLDPHSLQIST | -0.377 |
| HMELKFIGEAVNNPKRPLIAILGGAKVSDKIGVIENLLTKADKILIGGAMMFTFLKAEGKNIGTSLVED | 0.0616 |
| HMEGVSNLIVSVTRVKVTVDLSQAKVYLSIFPSEQAAFYLNALQQNRFQLKHDLSQLLKNQLRRIPTLQF | 0.283 |
| HMAESLHVTAAALFEGRAMLGIDGSRRLLRVGETSPEGVKLVSATAREAVIEIDGRRQTLAPGRDT | 0.0658 |
| HMAEVHVDGVTYQFSNPEQAVKFARKIAKELGLKVEVHGETVHVK | -0.156 |
| HMPLKLIDVYLGRHGKKRYDVFKETGLSQQTLASANGKPAAALTGRILQAIGRTVGETPGRVLDEMLMIEQ | -0.691 |
| HMEPSAQEIANKLLGHVKSLGLPITGLSISYNSTSDLATVRGQVQSQADREKIILAVGNVDHVAKVDDQLT | -0.0356 |
| HMPGTPADQVAELQTKVGTETKTGDMITQDDVKLLQTALDPLAKMNDRIQAAKILESKGIVTSDGNLRT | 0.124 |

| Sequence | soluble fraction (log2) |
| --- | --- |
| HMGRSYTIKSGDTLWAIATRYYGNGAQYSKIYNANKGTIESVAKSRGFRSSQNGHWIFPGTSITI | -0.207 |
| HMIKLSEAEWKVMKLLWEESPKTMMQITNLLKETTGWTKHTVMTFLKRMEEKKAIHYEEGGRAKLYYP | -0.589 |
| HMVDYSMEDSVWNNKKEHVNEWFDANPEHEGRRVIVDGLFAIGDAQPDLRKRHWSSISVVFADLDNSPIG | -0.356 |
| HMAKRMRNPNGYGSIVKLSGNRRNPYMVKVNTHMDERYYPVYDILGYYPTWADASIALAKYNDDPYNVS | -0.453 |
| HMKEPQLGPVRKWSDQTGNFGIEAQFVKREGDNILLKRADQRTISIPLEKLSDADQEHLKQEEQKQAME | -0.138 |
| HMSSFFLIDVSQVRIGMYIQLDVGWMRHPFPVNSFRITNQEQLDTLRSLNLAQVRWSPAKSDL | -3.77 |
| HMRSNIYTEEKLWTVLQDFFQENRYLTISLMRMKFGLSRHMAQKWIDHFIAKGLLVKDGTPRSPIYFLND | -2.3 |
| HMESSREVSFSEFMKQIDSGRVSSVKLDGETIYVRNSDGTSYKVIQPLGTDLIGVLRKSDIDVQAIKQ | -0.003 |
| HMRVESVGDRIRRLRKSLGLTQVKLAQMLGIKAPSVVQWESDKTNLSGENLLNAAKLFGVTPDYILYGG | -0.0657 |
| HMPSIGKNILYYRKKRNMTIDELSKKSGVSKSMLSQVEQEKTNPTVVTVWKIARSLDVSINQLLQT | -0.489 |
| HMILNWSEYTRSEIIELARDLSPDKYMIIDDINTYSKMKLLPSQAFIAEMFGSLRQFQKEAWGRE | -1.88 |
| HMQVIDNHWRPSRDALDILLRDGISEHFIEDAIPEFILYWRERGTQDSNWNSRFLQHIRLQWARYTNAV | -0.433 |
| HMNVDIVEITKNSSPNQISKVIDIGAIQIVEDLMSFGIMKAIDTPLEDSEIEQLLEKYNLIVDLIE | -2.33 |
| HMGIYFIIAAKNQENNIEEFIRTTLFRIVYGKEESINNITLVDLKSKDNTKNIMEEIARENENVKV | -0.335 |
| HMSHGSIYFSGKTGLKGSVDINGTVNSINKKIFLKPGNYNFLIKADGYKNLKGSFQISKGDKKFVELVLIP | -1.61 |
| HMKVMTNAELGRIIKEARIARRMTQSEVVGDFITRNMLSQIENGNAAPSMRTLQYLMDVLDIHINIE | -2.58 |
| HMTAEVIYVDVGGEVNQPSVVELTDGSRVTDAIAAAGGLTEKADLTDINRAAFVSDGEKIFIPSQEE | -0.0513 |
| HMSDRQLKRQANILYTTRKLASKVGYDGLTMRGLAEASEVSPKTLYNLFSSKDELLAAALEDLVGIV | 0.282 |
| HMDESIPVITYKDSVYANPKAFADAHKLPYKSLHNALSKARKEGKVRFMYKQYNFHLDNNGYIVAVS | 0.166 |
